Data published in paper PMC11087589, “Molecular basis of bacterial DSR2 anti-phage defense and viral immune evasion” (Nature Communications, 2024).

B1: Phage tail tube protein from Siphoviridae SPR, His6-SUMO-tagged (natural protein, Siphoviridae SPR (phage))
chain: MKTVIQDTADVYFKRKSDGKLVFTAEAQTASFSQAISEEKLRGGIGNKPLYILKSEKEINLTVKNAFFDLEWLAMTQGETIQEETKVKVFDREHGLIVDDTNKVTLKGKPVSDVTFYNKKGLTYKIAVSTDGTYTIPTAFAAAKDKLTAVYQIEKVGRRLAIKASKFSERYEVEYRTIAYNPDTEEVYSDIYIQFPNVSPSGEFEMSLENGNALAPEIKFEALADTDTDEMAVVIEASRDENTAAPVEDTTGSTQSSDLGGTTE
notes: Purified alone it is a hexamer and filaments of hexamers; in the complex with DSR2^H171A it is a monomer at each corner (4:4); The methods say that His6-SUMO-Tube was purified directly, without removal of the tag; also called His6-SUMO-Tube; HisSUMO-Tube; source: E. coli BL21(DE3); not shown: His6, N-terminal, kept; SUMO, N-terminal, kept

Assays:
[1] = target: DSAD1 (DSR anti-defense 1) from Siphoviridae SPbeta, His6-SUMO-tagged, co-expressed with DSR2 (Siphoviridae SPbeta (phage)) (UniProt Q796A8); assay: cryo-EM structure; DSR2-DSAD1 complex co-expressed and purified, 1.2 mg/mL; 3.49 Å after focus refinement
[2] = target: Bacillus subtilis DSR2, wild type, co-expressed with His6-SUMO-DSAD1 (Bacillus subtilis); assay: as above
[3] = target: the molecule itself; assay: SEC + other: cryo-EM 2D class averages; purified His6-SUMO-Tube alone
[4] = target: the molecule itself; assay: cryo-EM structure; apo DSR2 tetramer, 1.5 mg/mL, 4.15 Å after focus refinement
[5] = target: the molecule itself; assay: SEC; oligomeric state of purified DSR2, its mutants and the DSR2^H171A-Tube complex; Superdex 200 Increase 10/300 GL, 25 mM Tris-HCl pH 7.5, 150 mM NaCl
[6] = target: B1; assay: cryo-EM structure; DSR2^H171A-Tube complex co-expressed and purified, 2 mg/mL, 1 mM NAD+ added; 3.58 Å, local refinement 3.08 Å; conditions: both partners purified

Molecule: Bacillus subtilis DSR2, wild type, co-expressed with His6-SUMO-DSAD1 (enzyme)
- stoichiometry N (DSAD1:DSR2 (2:4)) [1]: 0.5
- stoichiometry N [2]: 4

Molecule: B1
- stoichiometry N [3]: 6

B2: Bacillus subtilis DSR2 (defense-associated sirtuin 2), wild type, His-tagged, purified alone (enzyme, UniProt P0DXN8 1-1005, looked up)
chain: MVKVDLESKRYGEKLKEVFLMLDNNVVECIKEITESSRNGKLVFFVGAGVSTLSDYPQWWRLVDKYHEELYGSPKKGNYSSDEYLRIPQIFYNVKGEMAFDGILKDFFQVDKPTNPIHDKILAMNPAHVITTNYDNLIDTACWKRGKYFSVISAEEDVANATSSRYLLKVHGDFRKGFKGENVVLKEDDYLNYDQNYPLISNLMKTIIATHTIVFIGYGLGDYNINMLLNWVRKLQKDSFHKPFFIRTDPSPIENETLIYYENKGLRIIDAASLIDSNEYDYLERYSAVMDLLIESQENKFITKDDEVIDYIYGKISPLFALQYIRKIDLKHVFEYDYHFEVNGTVVRHKNKGFGYMERFFELKESCDERSKLSKKQYERFNALFNFFEKNGVICMAKDAGTLNTSIEINSLAYHGKYDVMKKFIEEQSVSIEDDYKKAFFLACLGRWEESYDLYSNIILNSIDESNGCVYYLSQINRYRIYQSITQAVTQFNGLGLLTFGRHYKPFTDEFLARIEREMTNFNIDDLFNGMPFEFQKKYKILEFLSDNQFLYDDTVKLFELTNKVRSEMSEGSYSFGMSSDIVVLLRLYDNLRFLYENCLWSVSFHEFHQYIRNSMSLLIEKAEYERTRDIDELGFSFFGKKSGFFMEYYDFVNISRHFKIDDIKNLERSCSIDKIRFGEQEKIEEYLVGIAEEITKQFSANGMNVVFYTQFISEAKAALYFAKYVKLSEEGLGKIVKALLFYFPERDLDIGKRYVWLERLTKCNELPKSIISIIDDFLVLQAEKHIDQNYSEVSSNGLYSRDYGALIKHFEKNFISKRLSEITLCLTQDKQKQIDFLFKLLPLLSTNAKSHLLSFKSVENINDLMNGIRIGLIDEFTPEHEELIIEYLETRKVNYIVEKEKGIQTFSSNDYMSTFGIWYFLEEINNSKMEEFIGMDDQYDFFVDPENFDYKKFIPSWLKNYNDKLLGKIAGNKHMKHHVIEVLKERVKNSNDKRYLEILMNYFI
notes: Homo-tetramer by cryo-EM and SEC; Cloned into pCDFDuet (BamHI/XhoI); the methods call it His-tagged; also called apo DSR2; apo DSR2 tetramer; source: E. coli BL21(DE3), purified (Ni-NTA, gel filtration on Superdex 200 Increase)
- stoichiometry N [4]: 4

B3: DSR2^I259S/Y260G (enzyme, Bacillus subtilis, UniProt P0DXN8 1-1005, looked up)
chain: MVKVDLESKRYGEKLKEVFLMLDNNVVECIKEITESSRNGKLVFFVGAGVSTLSDYPQWWRLVDKYHEELYGSPKKGNYSSDEYLRIPQIFYNVKGEMAFDGILKDFFQVDKPTNPIHDKILAMNPAHVITTNYDNLIDTACWKRGKYFSVISAEEDVANATSSRYLLKVHGDFRKGFKGENVVLKEDDYLNYDQNYPLISNLMKTIIATHTIVFIGYGLGDYNINMLLNWVRKLQKDSFHKPFFIRTDPSPIENETLSGYENKGLRIIDAASLIDSNEYDYLERYSAVMDLLIESQENKFITKDDEVIDYIYGKISPLFALQYIRKIDLKHVFEYDYHFEVNGTVVRHKNKGFGYMERFFELKESCDERSKLSKKQYERFNALFNFFEKNGVICMAKDAGTLNTSIEINSLAYHGKYDVMKKFIEEQSVSIEDDYKKAFFLACLGRWEESYDLYSNIILNSIDESNGCVYYLSQINRYRIYQSITQAVTQFNGLGLLTFGRHYKPFTDEFLARIEREMTNFNIDDLFNGMPFEFQKKYKILEFLSDNQFLYDDTVKLFELTNKVRSEMSEGSYSFGMSSDIVVLLRLYDNLRFLYENCLWSVSFHEFHQYIRNSMSLLIEKAEYERTRDIDELGFSFFGKKSGFFMEYYDFVNISRHFKIDDIKNLERSCSIDKIRFGEQEKIEEYLVGIAEEITKQFSANGMNVVFYTQFISEAKAALYFAKYVKLSEEGLGKIVKALLFYFPERDLDIGKRYVWLERLTKCNELPKSIISIIDDFLVLQAEKHIDQNYSEVSSNGLYSRDYGALIKHFEKNFISKRLSEITLCLTQDKQKQIDFLFKLLPLLSTNAKSHLLSFKSVENINDLMNGIRIGLIDEFTPEHEELIIEYLETRKVNYIVEKEKGIQTFSSNDYMSTFGIWYFLEEINNSKMEEFIGMDDQYDFFVDPENFDYKKFIPSWLKNYNDKLLGKIAGNKHMKHHVIEVLKERVKNSNDKRYLEILMNYFI
notes: Dimer by SEC; also called I259S/Y260G mutant; mutant with disruption at the tetrameric interface; source: E. coli BL21(DE3), purified by a protocol similar to that of the wild type
- stoichiometry N [5]: 2

B4: DSR2^H171A, catalytic mutant, co-expressed with His6-SUMO-Tube (enzyme, Bacillus subtilis, UniProt P0DXN8 1-1005, looked up)
chain: MVKVDLESKRYGEKLKEVFLMLDNNVVECIKEITESSRNGKLVFFVGAGVSTLSDYPQWWRLVDKYHEELYGSPKKGNYSSDEYLRIPQIFYNVKGEMAFDGILKDFFQVDKPTNPIHDKILAMNPAHVITTNYDNLIDTACWKRGKYFSVISAEEDVANATSSRYLLKVAGDFRKGFKGENVVLKEDDYLNYDQNYPLISNLMKTIIATHTIVFIGYGLGDYNINMLLNWVRKLQKDSFHKPFFIRTDPSPIENETLIYYENKGLRIIDAASLIDSNEYDYLERYSAVMDLLIESQENKFITKDDEVIDYIYGKISPLFALQYIRKIDLKHVFEYDYHFEVNGTVVRHKNKGFGYMERFFELKESCDERSKLSKKQYERFNALFNFFEKNGVICMAKDAGTLNTSIEINSLAYHGKYDVMKKFIEEQSVSIEDDYKKAFFLACLGRWEESYDLYSNIILNSIDESNGCVYYLSQINRYRIYQSITQAVTQFNGLGLLTFGRHYKPFTDEFLARIEREMTNFNIDDLFNGMPFEFQKKYKILEFLSDNQFLYDDTVKLFELTNKVRSEMSEGSYSFGMSSDIVVLLRLYDNLRFLYENCLWSVSFHEFHQYIRNSMSLLIEKAEYERTRDIDELGFSFFGKKSGFFMEYYDFVNISRHFKIDDIKNLERSCSIDKIRFGEQEKIEEYLVGIAEEITKQFSANGMNVVFYTQFISEAKAALYFAKYVKLSEEGLGKIVKALLFYFPERDLDIGKRYVWLERLTKCNELPKSIISIIDDFLVLQAEKHIDQNYSEVSSNGLYSRDYGALIKHFEKNFISKRLSEITLCLTQDKQKQIDFLFKLLPLLSTNAKSHLLSFKSVENINDLMNGIRIGLIDEFTPEHEELIIEYLETRKVNYIVEKEKGIQTFSSNDYMSTFGIWYFLEEINNSKMEEFIGMDDQYDFFVDPENFDYKKFIPSWLKNYNDKLLGKIAGNKHMKHHVIEVLKERVKNSNDKRYLEILMNYFI
notes: source: E. coli BL21(DE3), co-expressed with His6-SUMO-Tube; in lysate (pull-down) and purified as the complex (Ni-NTA, Hitrap Q, gel filtration)
- stoichiometry N [5]: 4
- stoichiometry N [6]: 1 DSR2:Tube (4:4)
